This experiment deals with T1, FlhA^C−link (longer FlhA^C construct that includes the linker) (Salmonella enterica serovar Typhimurium ST313), P40729.
T1 chain: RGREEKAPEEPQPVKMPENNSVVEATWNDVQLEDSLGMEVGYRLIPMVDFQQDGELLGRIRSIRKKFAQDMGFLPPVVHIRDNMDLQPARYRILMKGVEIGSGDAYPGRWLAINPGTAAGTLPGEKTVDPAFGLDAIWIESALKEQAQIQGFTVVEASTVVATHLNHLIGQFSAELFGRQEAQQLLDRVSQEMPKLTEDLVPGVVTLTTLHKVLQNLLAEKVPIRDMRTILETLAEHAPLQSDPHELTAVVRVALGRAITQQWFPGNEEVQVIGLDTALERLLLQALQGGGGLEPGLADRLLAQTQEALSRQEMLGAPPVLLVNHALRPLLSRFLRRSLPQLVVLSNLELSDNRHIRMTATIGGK
As to the kind of experiment: SEC-MALS; Superdex 200 10/300 GL; 50 mM NaPi pH 6.8, 0.1 M NaCl, 0.05% NaN3; samples at 0.05–0.5 mM; room temperature. To be noted: remark: other sources report otherwise. On the technique in general: SEC sorts molecules by how far they enter the pores of the column.

B1: FlhA^C−link (longer FlhA^C construct that includes the linker), P40729 328-692 (domain or fragment)
chain: T1 chain
As a reminder, the stoichiometry N is a count of units in the complex or per binding partner. Regarding B1, the stoichiometry N was found to be 2.
